# Reference: patent US20220143136A1, “USE OF ANNEXINS IN PREVENTING AND TREATING MUSCLE MEMBRANE INJURY” (NORTHWESTERN UNIVERSITY, priority 2018, published 2022)
# B1: recombinant annexin A6: recombinant human annexin A6 protein with C-terminal HIS tag (5186-A6-050, R&D systems); mouse protein from Northwestern core in one cohort (protein, UniProt P08133 2-673, looked up)
# Annexin A6: AKPAQGAKYRGSIHDFPGFDPNQDAEALYTAMKGFGSDKEAILDIITSRSNRQRQEVCQSYKSLYGKDLIADLKYELTGKFERLIVGLMRPPAYCDAKEIKDAISGIGTDEKCLIEILASRTNEQMHQLVAAYKDAYERDLEADIIGDTSGHFQKMLVVLLQGTREEDDVVSEDLVQQDVQDLYEAGELKWGTDEAQFIYILGNRSKQHLRLVFDEYLKTTGKPIEASIRGELSGDFEKLMLAVVKCIRSTPEYFAERLFKAMKGLGTRDNTLIRIMVSRSELDMLDIREIFRTKYEKSLYSMIKNDTSGEYKKTLLKLSGGDDDAAGQFFPEAAQVAYQMWELSAVARVELKGTVRPANDFNPDADAKALRKAMKGLGTDEDTIIDIITHRSNVQRQQIRQTFKSHFGRDLMTDLKSEISGDLARLILGLMMPPAHYDAKQLKKAMEGAGTDEKALIEILATRTNAEIRAINEAYKEDYHKSLEDALSSDTSGHFRRILISLATGHREEGGENLDQAREDAQVAAEILEIADTPSGDKTSLETRFMTILCTRSYPHLRRVFQEFIKMTNYDVEHTIKKEMSGDVRDAFVAIVQSVKNKPLFFADKLYKSMKGAGTDEKTLTRIMVSRSEIDLLNIRREFIEKYDKSLHQAIEGDTSGDFLKALLALCGGED
# modifications: C-terminal His tag
# notes: recombinant human annexin A6 protein with C-terminal HIS tag (5186-A6-050, R&D systems); mouse protein from Northwestern core in one cohort
# Columns and labels:
# [1] = system: mdx/hLTBP4 dystrophic muscle; assay: Anti-HIS immunofluorescence localization after systemic injection, mdx/hLTBP4; format: in vivo, mouse; conditions: 6 hours post systemic injection, vs PBS
# Description: (§1) Immunofluorescence microscopy. Sections (10 μm thick) from the center of frozen-embedded muscles were collected on the cryostat (chamber, −20° C.; sample, −15° C.; catalog number CM1950; Leica, Wetzlar, Germany) for immunostaining. Tissues were fixed with 4% paraformaldehyde for 10 minutes on ice. Block and permeabilization were with 0.1% Triton (catalog number X-100; Sigma-Aldrich), 10% fetal bovine serum, and PBS for 60 minutes. For dystrophin detection, anti-dystrophin (ab15277; Abcam, Cambridge, Mass.) was used at a dilution of 1:100 overnight at 4° C. Sections were PBS rinsed, incubated with secondary antibody goat anti rabbit (A11008, Invitrogen) for 1 hour, PBS rinsed, and mounted in vectashield with DAPI (H-1200, Vector Laboratories). Imaging was performed using a Zeiss Axio Observer A1 microscope (Zeiss, Oberkochen, Germany), using a 10× objective. ZEN software (Zeiss, Jena, Germany) was used for acquiring images. Fluorescence quantitation and muscle area were performed using FIJI (NIH). Surface plots were created in FIJI (NIH). Fluorescence volume was quantified using Imaris Software v9.1.2.
# Immunofluorescence microscopy. Mice were systemically injected with recombinant annexin A6 with a C-terminal HIS tag (R&D). Muscle was harvested and flash frozen. […]
# [2] = system: tibialis anterior muscles of wildtype mice; assay: Cardiotoxin injection and histology 7 days post injury; format: in vivo, mouse; conditions: 1 mg/kg retro-orbital 2 hours before cardiotoxin, vs BSA control
# Description: Cardiotoxin injection and histology. […] Two hours post injection mice were sedated for a second time. While sedated the tibialis anterior muscles were injected along the midline with 10 μm cardiotoxin in 20 ul of PBS as described above. Seven days post injection, the muscle was isolated and frozen. Muscle sections were acquired every 100 μm from muscle tendon into the mid belly, fixed and stained with hematoxylin and eosin. Imaging was performed using a Zeiss Axio Observer A1 microscope (Zeiss, Oberkochen, Germany), using a 10× objective. ZEN software (Zeiss, Jena, Germany) was used for acquiring tiled images. Percent injury area was calculated as the average injured area (containing internal myonuclei) divided by total muscle area of 3 sections per muscle. One muscle from each group was excluded due to technical error in tissue processing. Damage area was measured using FIJI (NIH).
# wildtype myofibers = assay: Laser injury FM 4-64 uptake, E coli versus HEK cell produced rANXA6; format: cell-based, mouse; conditions: 13 μg/ml and 130 μg/ml; vs BSA control
# Description: Myofiber isolation, laser injury, and dye measurement. For recombinant myofibers studies, myofibers were isolated from wildtype mice. Myofibers were incubated in Ringer's media with 13 μg/ml or 130 μg/ml human recombinant annexin, E coli or HEK cell produced. Bovine serum albumin (BSA) was used as a negative control. FM 4-64 ([…]) was added to the myofibers just prior to imaging. Fibers were subjected to laser-induced damage at room temperature using the Nikon A1R-MP multiphoton microscope. Imaging was performed using a 25×1.1 NA objective directed by the NIS-Elements AR imaging software. FM 4-64 was excited using a 920 nm wavelength laser and emission wavelengths of 575 nm and 629 nm were collected, respectively. To induce laser damage on isolated myofibers, a diffraction limited spot (diameter approximately 410 nm) was created on the lateral membrane of the myofiber using a 920 nm wavelength laser at 10-15% laser power for 1 second. FM 4-64 area was measured using FIJI from a single slice near the middle of the z-stack. Myofiber quality control was based on a number of characteristics including using adherent myofibers with intact sarcomere structure. Myofibers appeared devoid of tears or ruptures induced during the isolation protocol. The region of the myofiber selected for damage was linear and not located on a nucleus or neuromuscular junction.
# Statistical analyses were performed with Prism (Graphpad, La Jolla, Calif.). Comparisons relied on ANOVA (1way ANOVA for 1 variable). P-values of less than or equal to 0.05 were considered significant. Error bars represent +/−standard error of the mean (SEM).
# [3] = system: tibialis anterior muscles of wildtype mice; assay: Cardiotoxin injury, intramuscular recombinant annexin A6, Evan's blue dye uptake; format: in vivo, mouse; conditions: for decrease in Evan's blue dye uptake (fluorescence over muscle area): 25 μg/ml intramuscular 2 hours before cardiotoxin, harvested 3 hours post injury, vs control muscle; for cardiotoxin-induced muscle damage, dye uptake by gross imaging: intramuscular pretreatment vs control
# Description: Cardiotoxin Injury and analysis. […] Additionally, mice were injected intraperitoneally with Evans' blue dye at 5 μl/g body weight (E-2129; Sigma-Aldrich, St. Louis, Mo.) dissolved in phosphate-buffered saline at 10 mg/mL. […] Cardiotoxin injury was performed injecting 20 μl of a 10 μM cardiotoxin (discontinued, Sigma-Aldrich) solution in PBS in tibialis muscles in sedated animals (3% isoflurane, 0.8 l/min O2) 2 hours post pretreatment. Cardiotoxin was released down the midline of the muscle to induce a homogenous area of injury at the center of the muscle. 3 hours post cardiotoxin injection muscle was harvested and frozen in liquid nitrogen.
# as §1
# Cardiotoxin Injury and analysis. […] Additionally, mice were injected with Evans' blue dye at 5 μl/g body weight (E-2129; Sigma-Aldrich, St. Louis, Mo.) dissolved in phosphate-buffered saline at 10 mg/mL cardiotoxin injury was performed injecting 20 μl of a 10 μM cardiotoxin solution in PBS in tibialis anterior or gastroc/soleus muscles in sedated animals (3% isoflurane, 0.8 l/min O2) 2 hours post pretreatment. Cardiotoxin was released down the midline of the muscle to induce a homogenous area of injury at the center of the muscle. 3 hours post cardiotoxin injection muscle was harvested.
# Evans blue dye uptake. […] Fluorescence quantitation, surface plots, and muscle area were performed using FIJI (NIH). For whole tissue dye quantification, whole tissue was dissected, finely minced, weighed, and incubated at 55° C. in 1 mL of formamide for 2 hours. Spectrophotometric absorbance was measured at 620 nm.
molecule,measurement,setting,value
B1,anti-HIS staining at the sarcolemma / plasma membrane,[1]; listed as rANXA6,localized to the plasma membrane
same,anti-HIS staining at the sarcolemma / plasma membrane,[1]; listed as recombinant annexin A6-HIS,presence of recombinant annexin A6-HIS at the sarcolemma
same,"percentage of injured muscle (internal myonuclei), histology",[2],reduced
same,"percentage of injured muscle (internal myonuclei), histology",[2]; listed as rANXA6,reduction
same,FM 4-64 dye uptake after laser injury,wildtype myofibers,reduction
same,decrease in Evan's blue dye uptake (fluorescence over muscle area),[3],50%
same,decrease in Evan's blue dye uptake (fluorescence over muscle area),[3]; listed as rANXA6,approximately 50%
same,"cardiotoxin-induced muscle damage, dye uptake by gross imaging",[3],reduced
same,"cardiotoxin-induced muscle damage, dye uptake by gross imaging",[3]; listed as rANXA6,decreased
